Test results from patent US20070111947A1, “Fibrin targeted therapeutics” (priority 2005, published 2007).

Tested on: arterial thrombosis (FeCl3 damaged carotid artery)
Test: Arterial thrombosis model (FeCl3 damaged carotid artery)
Format: in vivo, rabbit
Protocol: Rabbits are initially sedated with a subcutaneous injection of Xylazine (5 mg/kg). Approximately 5 min following sedation, the animals are anesthetized with a dose of Ketamine (50 mg/kg) and Acepromazine (2.5 mg/kg) intramuscularly to achieve the appropriate level of anesthesia. Anesthetic depth will be assessed using the pain withdraw reflexes and EKG. Anesthesia is given intravenously every 45-60 min at 5-10 mg/kg to maintain proper anesthetic depth.
Left carotid artery is isolated using a ventral midline approach. A stenosis is initiated on the carotid artery reducing blood flow by 70-80%. 1 cm segments of carotid artery are placed in a plastic tube opened lengthwise, together with a filter paper (diameter 3 mm) soaked in ferric chloride (FeCl3, 40 μL, 40% w/w). After 15-30 min exposure of the artery to FeCl3, the plastic tube with the filter paper is removed and the artery is rinsed with saline. The time to vessel occlusion is monitored using a Doppler flow probe, which is attached to the carotid artery. ^125I fibrinogen (30 μCi/kg) is administered 5 min before initiation of the stenosis. The saline, test or control compounds are given via the jugular vein as an intravenous bolus injection immediately before or at the end of FeCl3 exposure. Blood sample are collected at 1, 3, 5, 12, 20, 30, 45, 60 and 90 min after compound injection via the contra lateral jugular vein. The time that blood flow dropped to zero is recorded as the occlusion time of blood vessel. At the end of experiment, animals are sacrificed with an overdose of pentobarbital (120 mg/kg). Both the clot from the FeCl3 damaged artery, and the damaged artery after clot removal are weighed. Right carotid artery is used as a control. Concentration of test compound and fibrin in the clot are detected by γ-countering.
Pharmacokinetics of compound are analyzed by using the WinNonLin program.

[1] = compared to an equivalent dose of Non-binder control, FIG. 4

CCC(C)[C@H](CC(=O)[C@@H](C)Cc1c[nH]cn1)C(=O)N[C@@H](CC(C)C)C(=O)NCc1ccc(CCC(=O)[C@H](CCNC(=O)CC[C@H]2C(=O)[O][Y]345[O]C(=O)CN(CCN2CCN(CC(=O)[O]3)CC(=O)[O]4)CC(=O)[O]5)NC(=O)CC[C@H]2C(=O)[O][Y]345[O]C(=O)CN(CCN2CCN(CC(=O)[O]3)CC(=O)[O]4)CC(=O)[O]5)cc1 (stereo partly shown) [Hybrid Molecule 3]
higher level bound to clot [1]: 5 fold
higher level bound to clot plus damaged artery [1]: 2 fold
increased time to occlusion (compared to an equivalent dose of melagatran alone or the Non-binder, FIG. 2): approximately 4 fold
decrease in clot weight (compared to an equivalent dose of melagatran or Non-binder control, FIG. 3): approximately 2 fold
